28 sequences from the supplement of paper PMC9170038 can be followed below.

In the data set the test system is MS2 coat protein. Kind of data set: apparent KD of MS2 coat protein; designed switch direction (-1 OFF switch, 1 ON switch): 1; higher = weaker reporter binding. In short, it runs like this: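 Each step of the titration lasted 0.8–1.5 h at the lowest concentration and 10–20 min at the highest. The protein, SNAP-549-labelled MS2 coat protein, went from 0.7 or 1.5 nM doubling to 3 µM over RNA switches transcribed on Illumina chips by stalled E. coli RNA polymerase. Normalised cluster fluorescence was curve-fitted, and the per-design median over clusters is given as apparent KD.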

Setting [1] is: input ligand: microRNA oligo, concentration not stated.
Where [2] appears, read: Eterna round: R95, input ligand: FMN 200 uM.
[3] abbreviates: Eterna round: R95, input ligand: microRNA oligo, concentration not stated.
[4] abbreviates: Eterna round: R95, input ligand: none.

Turning to “GCUAGAAAUAAAGCCAACAUGAGGAUCACCCAUGUAUGUUGGUAGGAUAUCGUUUGCAAAGCAAACGAGAAGGGCUAAACUAGC [Mat - Same State NG 3 - JL Mod - D17] (Eterna round: R96, puzzle: Same State NG 3)”, the “apparent KD of MS2 coat protein” value (input ligand: FMN 200 uM) was 61.6 nM, the “apparent KD of MS2 coat protein” value under setting [1] was determined as 68.8 nM and the “apparent KD of MS2 coat protein” value (input ligand: none) stood at 61 nM.

Regarding “GCACAUGAGGAUCACCCAUGUGCGCUUGGUUGUCCAAGCGCACAGGAUAUACCUCCAAAUGGGAGGUAGAAGGGUGAAAAGAAG [Leones] (Eterna round: R96, puzzle: Same State NG 3)”, the “apparent KD of MS2 coat protein” value came to 15.1 nM (input ligand: FMN 200 uM), 11.1 nM under setting [1] and 11 nM (input ligand: none).

Turning to “GCUCGGCUGAUGGCCCACAUGAGGAUCACCCAUGUGACUGGGCAGGAUAUCUAGAUGCAGGAUGUAGAGAAGGGCCUGCCGAGC [SameState NG3 #41] (Eterna round: R96, puzzle: Same State NG 3)”, the “apparent KD of MS2 coat protein” value by setting is: (input ligand: FMN 200 uM) 358 nM; under setting [1], 98.8 nM; (input ligand: none) 155 nM.

Take “AUUAUAUAUGCAGGAUAUGAUUAACAUGAGGAUCACCCAUGUGGUGUUGUGAGUAAGGAGAGUGAUCAGAAGGGCAUUUUUUUU [JMF's solution 63] (Eterna round: R96, puzzle: Same State NG 2)”: the “apparent KD of MS2 coat protein” value by setting is: (input ligand: FMN 200 uM) 852 nM; under setting [1], 163 nM; (input ligand: none) 353 nM.

Consider “UUCCCAGCGGGAGGAUAUGGUGCCUUGUUGGUGCUAGAAGGUCCAACAUGAGGAUCACCCAUGUGGGAGUGGUUGAGAGACCUC [SS NG10LRO11] (Eterna round: R96, puzzle: Same State NG 1)”, for which the “apparent KD of MS2 coat protein” value (input ligand: FMN 200 uM) was 225 nM, the “apparent KD of MS2 coat protein” value under setting [1] came out at 200 nM and the “apparent KD of MS2 coat protein” value (input ligand: none) came to 274 nM.

With “CAGCACUGUCGAGAGGAUAUGCGGUGAUAGACAUGAGGAUCACCCAUGUUAGCGACAGCAUCACGGCAGAAGGCUCUGCUGCUGC [Soteed Omei mod 40] (puzzle: Same State 2)”, the “apparent KD of MS2 coat protein” value stood at 43.5 nM under setting [2], 130 nM under setting [3] and 349 nM under setting [4].

For the sequence “GACAAGAAGUCAUAGGAUAUACAAGGAGUGACAUGAGGAUCACCCAUGUACCAUCACACUACCCAGUAGAAGGAUGGCAAUAAAA [Oranor] (puzzle: Same State 2)”, the “apparent KD of MS2 coat protein” value reads like this: under setting [2], 50.3 nM; under setting [3], 384 nM; under setting [4], 542 nM.

In the case of “UGUUAACAUGAGGAUCACCCAUGUCAAAUGAAUCGAGGAUAUGGGAAGUAAGAAGAGAAACUAGAAGGCGAAGUUG [Altered State 1-3 - Jieux - Same State 1] (puzzle: Same State 1)”, the “apparent KD of MS2 coat protein” value runs as follows: under setting [2], 97.2 nM; under setting [3], 72.9 nM; under setting [4], 226 nM.

In the case of “CCAUGGUAACAUGAGGAUCACCCAUGUACAAGCUUUUUGCUCGGUUUUAUCCCGGGCCCGGAUUACACGGGCCCGGG [Initial Design] (puzzle: Sensor for hsa-mir-208a version 2)”, the “apparent KD of MS2 coat protein” value is, setting by setting: under setting [2], 41.4 nM; under setting [3], 50.7 nM; under setting [4], 33.6 nM.

On to “AAAAUGGUAUGUUACAUGAGGAUCACCCAUGUACUCUAAUCUGAGGAUAUGGGAAUGAAGAAGAACCAGAAGGCAGACAUCCAA [AK SSNG3-V2-23] (Eterna round: R96, puzzle: Same State NG 3)”, for which the “apparent KD of MS2 coat protein” value by setting is: (input ligand: FMN 200 uM) 258 nM; under setting [1], 91.8 nM; (input ligand: none) 104 nM.

For the sequence “UUAAUUAAUUAAUUAUACAUGAGGAUCACCCAUGUAAGUGAUCAGGAUAUCAGCUCGAUUAGAGCUGAGAAGGGAUCCAUGUAA [SSNG3/14-A2] (Eterna round: R96, puzzle: Same State NG 3)”, under setting [1], the “apparent KD of MS2 coat protein” value is 78 nM.

In the case of “GCUACCAAAGAAGCCAACAUGAGGAUCACCCAUGUAUGUUGGCAGGAUAUCGUUUGCAAAGCGAACGAGAAGGGCUAAGGUAGC [Mat - Same State NG 3 - JL Mod - D89] (Eterna round: R96, puzzle: Same State NG 3)”, the “apparent KD of MS2 coat protein” value is, setting by setting: (input ligand: FMN 200 uM) 197 nM; under setting [1], 116 nM; (input ligand: none) 231 nM.

Take “GCUACCAAAGAAGCCAACAUGAGGAUCACCCAUGUAUGUUGGUAGGAUAUCGAUUGCAAAGCGAUCGAGAAGGGCUAAGGUAGC [Mat - Same State NG 3 - JL Mod - D84] (Eterna round: R96, puzzle: Same State NG 3)”: the “apparent KD of MS2 coat protein” value reads like this: (input ligand: FMN 200 uM) 132 nM; under setting [1], 93.1 nM; (input ligand: none) 95.5 nM.

“AUACAUGAGGAUCACCCAUGUAAUUAAUUAACUAGUAAGAUCUAGGAUAUCAGCUCGAUUAGAGCUGAGAAGGAGAUCACAUGU [SSNG3/21-A2] (Eterna round: R96, puzzle: Same State NG 3)”: the “apparent KD of MS2 coat protein” value under setting [1] came to 29.3 nM.

For the sequence “AGUCCAGCCUGAGCUGGACAAAAGCAUGUACAUGAGGAUCACCCAUGUCAUGUACAAGCUUUUUGCUCGUCUUAAGA [Mat - hsa-mir-208a - Mod of JL - D21] (puzzle: Sensor for hsa-mir-208a)”, the “apparent KD of MS2 coat protein” value reads like this: under setting [2], 561 nM; under setting [3], 16.5 nM; under setting [4], 933 nM.

Consider “AUAUAACAUGAGGAUCACCCAUGUCACUAAAGUCGAGGAUAUGGGCAGGUUAUAUCCGAACCAGAAGGCGAAUUAU [SS1 Teenbexe 6] (Eterna round: R96, puzzle: Same State 1)”, for which the “apparent KD of MS2 coat protein” value runs as follows: (input ligand: FMN 200 uM) 41 nM; under setting [1], 221 nM; (input ligand: none) 208 nM.

As for “UUCCCAGCGGGAGGAUAUGGUGCCUUGUUGGUGCUAGAAGGUCCAACAUGAGGAUCACCCAUGUGGGAGUGGUCGAAAGACCUC [SS NG10LRO09] (Eterna round: R96, puzzle: Same State NG 1)”, the “apparent KD of MS2 coat protein” value is, setting by setting: (input ligand: FMN 200 uM) 224 nM; under setting [1], 186 nM; (input ligand: none) 318 nM.

As for “ACAAGCUUUUCUGUAUUGAAAGGUGGGAUACAUGAGGAUCACCCAUGUUUUUUCGUUUGUUUUGUUCCUCGUCUUAU [JR_SHM208A_Sub090] (puzzle: Sensor for hsa-mir-208a)”, the “apparent KD of MS2 coat protein” value stood at 87.7 nM under setting [2], 23.9 nM under setting [3] and 116 nM under setting [4].

Regarding “CACCAGAGGAGAGGAUAUGGUCGAACCCACAGUCCAGAAGGCUCACAGGAACCUAGAGACAUGAGGAUCACCCAUGUGGCGACC [Eternabot solution 7] (Eterna round: R96, puzzle: Same State NG 1)”, the “apparent KD of MS2 coat protein” value (input ligand: FMN 200 uM) stood at 144 nM, the “apparent KD of MS2 coat protein” value under setting [1] is 105 nM and the “apparent KD of MS2 coat protein” value (input ligand: none) amounted to 165 nM.

Turning to “AUUAGACAUGAGGAUCACCCAUGUAGGCAGUCAUGAGGAUAUGGACAAGGUGCUCAAGGUCCAGAAGGCAUACGCC [Maxeus] (Eterna round: R96, puzzle: Same State 1)”, the “apparent KD of MS2 coat protein” value is, setting by setting: (input ligand: FMN 200 uM) 12.2 nM; under setting [1], 28.3 nM; (input ligand: none) 28 nM.

On to “GCCGCAAGGGCAGGAUAUGGGUCCAGAGCGCAAAUGCGCUCUGGUACAUGAGGAUCACCCAUGUCCCAGAAGGGCCCAAGCGAC [Xeatvearbe] (Eterna round: R96, puzzle: Same State NG 2)”, for which the “apparent KD of MS2 coat protein” value by setting is: (input ligand: FMN 200 uM) 14.6 nM; under setting [1], 88.6 nM; (input ligand: none) 130 nM.

With “GCUGCAAGGGCAGGAUAUGGGUCCAAAGCGCAAGUGCGCUUUGGUACAUGAGGAUCACCCAUGUCCCAGAAGGGCCCAAGCGGC [Quzaceza] (Eterna round: R96, puzzle: Same State NG 2)”, the “apparent KD of MS2 coat protein” value (input ligand: FMN 200 uM) came to 15.6 nM, the “apparent KD of MS2 coat protein” value under setting [1] was 83.1 nM and the “apparent KD of MS2 coat protein” value (input ligand: none) was 140 nM.

For “GAGUGGAGGAGAGGAUAUACAAUGAUAAUCACUGUAGAAGGUUCUAACAUGAGGAUCACCCAUGUAGGACUAUUCCUGAGAGUU [Parity 51 - Jieux - Same State NG 1] (Eterna round: R96, puzzle: Same State NG 1)”, the “apparent KD of MS2 coat protein” value under setting [1] turned out to be 9.46 nM.

Consider “AGGCUCAGAGCAGGAUAUAUGCGAUCACAUGAGGAUCACCCAUGUCUCGAGCUUCGGCUCGAGGCAUAGAAGGGCUCUGAGCCA [SSNG2/4-B1] (Eterna round: R96, puzzle: Same State NG 2)”, for which the “apparent KD of MS2 coat protein” value was 18.9 nM (input ligand: FMN 200 uM), 28.6 nM under setting [1] and 51.8 nM (input ligand: none).

“GGAAAGAGGUUAGGAUAUGCAUGUCUGGGACAUGAGGAUCACCCAUGUAAUAGAAGAAAUCUACAGUAGAAGGGACAAGGAAGG [AK SSNG2-V2-7] (Eterna round: R96, puzzle: Same State NG 2)”: the “apparent KD of MS2 coat protein” value (input ligand: FMN 200 uM) worked out at 89.9 nM, the “apparent KD of MS2 coat protein” value under setting [1] was 62.7 nM and the “apparent KD of MS2 coat protein” value (input ligand: none) was found to be 75.2 nM.

In the case of “AGUCCAGCCUGAGCUGGACAAAAGCAUGUACAUGAGGAUCACCCAUGUUAUGUACAAGCUUUUUGCUCGUCUUAAUA [Zipper 49 - 10] (puzzle: Sensor for hsa-mir-208a)”, the “apparent KD of MS2 coat protein” value reads like this: under setting [2], 165 nM; under setting [3], 14.3 nM; under setting [4], 238 nM.

Regarding “AAUUAAUUAAUACAUGAGGAUCACCCAUGUAAUUAUUAGAUCUAGGAUAUCAGCUCGAUUAGAGCUGAGAAGGAGAUCACAUGU [SSNG3/18-B2] (Eterna round: R96, puzzle: Same State NG 3)”, under setting [1], the “apparent KD of MS2 coat protein” value was determined as 13.6 nM.

With “UUAAUGAUGAAAGGAUAUACAUGAGGAAUUCUCGUAGAAGGUUCAUGACAUGAGGAUCACCCAUGUAUCGCUCGAAAGAGCGUA [Mat - Same State NG 1 - JL mod - D30] (Eterna round: R96, puzzle: Same State NG 1)”, the “apparent KD of MS2 coat protein” value by setting is: (input ligand: FMN 200 uM) 149 nM; under setting [1], 11.6 nM; (input ligand: none) 47.1 nM.
